Experimental data as given in US10428140B2, “Anti-EphA4 antibody” (EISAI R&D MANAGEMENT CO., LTD., priority 2015, dated 2019).
Where a chain is given by its changes, count along the chain named.

T1: human EphB3 (Homo sapiens, UniProt P54753)
T1 construct: a protein of the extracellular region of each human Eph receptor fused with the SEAP protein and the His tag; made in house; host or cells: Expi293F cells
T1 sequence (P54753 34-559 limits assumed): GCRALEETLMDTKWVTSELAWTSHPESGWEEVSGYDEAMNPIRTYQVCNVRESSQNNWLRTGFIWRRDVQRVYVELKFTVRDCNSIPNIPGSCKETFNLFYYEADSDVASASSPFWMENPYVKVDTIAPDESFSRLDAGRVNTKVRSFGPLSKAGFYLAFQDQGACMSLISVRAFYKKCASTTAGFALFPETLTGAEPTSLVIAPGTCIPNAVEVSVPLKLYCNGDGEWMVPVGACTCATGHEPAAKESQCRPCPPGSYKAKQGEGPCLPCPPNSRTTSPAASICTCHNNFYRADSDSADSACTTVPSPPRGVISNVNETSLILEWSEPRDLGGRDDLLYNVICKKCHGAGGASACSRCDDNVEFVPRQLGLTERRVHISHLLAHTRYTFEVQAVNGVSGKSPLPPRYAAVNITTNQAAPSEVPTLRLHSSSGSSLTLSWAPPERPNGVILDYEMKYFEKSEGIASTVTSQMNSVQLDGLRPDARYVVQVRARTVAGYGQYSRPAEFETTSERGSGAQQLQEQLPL

T2: human EphB6 (Homo sapiens, UniProt O15197)
T2 construct: a protein of the extracellular region of each human Eph receptor fused with the SEAP protein and the His tag; made in house; host or cells: Expi293F cells
T2 sequence (O15197 32-594 limits assumed): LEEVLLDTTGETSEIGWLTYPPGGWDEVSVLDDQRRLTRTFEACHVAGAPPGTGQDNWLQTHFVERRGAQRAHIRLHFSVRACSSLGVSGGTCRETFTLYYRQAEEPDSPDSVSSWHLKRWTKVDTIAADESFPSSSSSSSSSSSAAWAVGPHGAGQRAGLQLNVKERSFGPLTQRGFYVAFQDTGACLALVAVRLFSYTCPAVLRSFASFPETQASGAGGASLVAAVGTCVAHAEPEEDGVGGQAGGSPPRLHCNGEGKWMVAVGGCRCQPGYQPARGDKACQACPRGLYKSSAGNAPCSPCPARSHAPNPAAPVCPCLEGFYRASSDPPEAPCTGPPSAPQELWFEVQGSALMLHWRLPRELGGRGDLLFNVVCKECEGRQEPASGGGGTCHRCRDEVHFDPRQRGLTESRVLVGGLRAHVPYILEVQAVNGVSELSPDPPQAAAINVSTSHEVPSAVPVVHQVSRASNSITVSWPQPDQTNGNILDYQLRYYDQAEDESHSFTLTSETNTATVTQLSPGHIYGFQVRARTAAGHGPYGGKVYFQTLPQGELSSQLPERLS

B1: 69 (antibody, V domains shown)
VH: QIQLVQSGSELKKPGASVKVSCKASGYTFTDYSMHWVRQAPGQGLKWMGWINTETGEPTYADDFKGRFVFSLDTSVSTAYLQISSLKAEDTAVYYCARIPLYYYGSRYWYFDVWGQGTTVTVSS
VL: DIQMTQSPSSLSASVGDRVTITCRASENIYRNLAWYQQKPGKAPKLLVYAATNLADGVPSRFSGSGSGTDYTLTISSLQPEDFATYYCQHFWGTPWTFGQGTKVEIK
modifications: synthetic humanized antibody heavy chain variable region sequence; synthetic humanized antibody light chain variable region sequence
B2: 81 (antibody, V domains shown)
VL: B1 VL with V48L, P80S
VH: B1 VH with I2V, K46E, D62Q, D63G, K65T
modifications: constant regions without entry; synthetic humanized antibody light chain variable region sequence; synthetic humanized antibody heavy chain variable region sequence
B3: 82 (antibody, V domains shown)
VL: B1 VL with V48L, P80S
VH: B1 VH with I2V, D62Q, D63G, K65T
modifications: constant regions without entry; synthetic humanized antibody light chain variable region sequence; synthetic humanized antibody heavy chain variable region sequence
B4: 84 (antibody, V domains shown)
VL: B1 VL with V48L, P80S
VH: B1 VH with I2V, K46E
modifications: constant regions without entry; synthetic humanized antibody light chain variable region sequence; synthetic humanized antibody heavy chain variable region sequence
B5: 89 (antibody, V domains shown)
VL: B1 VL with K45Q, V48L
VH: B1 VH with D62Q, D63G, K65T
modifications: constant regions without entry; synthetic humanized antibody light chain variable region sequence; synthetic humanized antibody heavy chain variable region sequence
B6: 86 (antibody, V domains shown)
VL: B1 VL with V48L, P80S
VH: B1 VH
modifications: constant regions without entry; synthetic humanized antibody light chain variable region sequence; synthetic humanized antibody heavy chain variable region sequence
B7: 90 (antibody, V domains shown)
VL: B1 VL with K45Q, V48L
VH: B1 VH with I2V, K46E
modifications: constant regions without entry; synthetic humanized antibody light chain variable region sequence; synthetic humanized antibody heavy chain variable region sequence
B8: 87 (antibody, V domains shown)
VL: B1 VL with K45Q, V48L
VH: B1 VH with I2V, K46E, D62Q, D63G, K65T
modifications: constant regions without entry; synthetic humanized antibody light chain variable region sequence; synthetic humanized antibody heavy chain variable region sequence
B9: 92 (antibody, V domains shown)
VL: B1 VL with K45Q, V48L
VH: B1 VH
modifications: constant regions without entry; synthetic humanized antibody light chain variable region sequence; synthetic humanized antibody heavy chain variable region sequence
B10: 85 (antibody, V domains shown)
VL: B1 VL with V48L, P80S
VH: B1 VH with I2V
modifications: constant regions without entry; synthetic humanized antibody light chain variable region sequence; synthetic humanized antibody heavy chain variable region sequence
B11: 83 (antibody, V domains shown)
VL: B1 VL with V48L, P80S
VH: B1 VH with D62Q, D63G, K65T
modifications: constant regions without entry; synthetic humanized antibody light chain variable region sequence; synthetic humanized antibody heavy chain variable region sequence
B12: 93 (antibody, V domains shown)
VL: EIVMTQSPATLSVSPGERATLSCRASENIYRNLAWYQQKPGQSPRLLIYAATNLADGIPARFSGSGSGTEYTLTISSLQSEDFAVYYCQHFWGTPWTFGQGTKVEIK
VH: B1 VH with I2V, K46E, D62Q, D63G, K65T
modifications: constant regions without entry; synthetic humanized antibody light chain variable region sequence; synthetic humanized antibody heavy chain variable region sequence
B13: 91 (antibody, V domains shown)
VL: B1 VL with K45Q, V48L
VH: B1 VH with I2V
modifications: constant regions without entry; synthetic humanized antibody light chain variable region sequence; synthetic humanized antibody heavy chain variable region sequence
B14: 88 (antibody, V domains shown)
VL: B1 VL with K45Q, V48L
VH: B1 VH with I2V, D62Q, D63G, K65T
modifications: constant regions without entry; synthetic humanized antibody light chain variable region sequence; synthetic humanized antibody heavy chain variable region sequence

Key:
human EphB3 = target: T1, human EphB3; test: Selectivity ELISA of humanized antibodies for human Eph receptor; format: binding; conditions: coated protein 1 nM
Summary of the method: (§1)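 Human Eph ECD-SEAP-His fusions, harvested after 5 days of Expi293F expression, are captured on anti-His-coated wells (1 nM final). Bound humanized antibody is detected with HRP anti-IgG and TMB at 450 nm.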

human EphB6 = target: T2, human EphB6; test: as above; format: binding; conditions: coated protein 1 nM
Summary of the method: as §1

Molecule | hEphB3-SEAP-: absorbance at 450 nm, percentage with respect to hEphA4-SEAP-His as 100% (human EphB3) [%] | hEphB6-SEAP-: absorbance at 450 nm, percentage with respect to hEphA4-SEAP-His as 100% (human EphB6) [%]
B1 | 5.9 | 5.6
B2 | 4.9 | 5.0
B3 | 5.6 | 5.5
B4 | 4.8 | 4.9
B5 | 5.7 | 4.8
B6 | 5.9 | 5.7
B7 | 5.1 | 5.2
B8 | 5.5 | 5.3
B9 | 6.9 | 6.5
B10 | 5.2 | 5.2
B11 | 5.7 | 5.8
B12 | 5.1 | 4.9
B13 | 7.0 | 6.3
B14 | 6.3 | 6.1
